Results taken from patent US8889130B2, “Treatment of osteoarthritis and pain” (Abbvie Inc., priority 2011, dated 2014).

B1: DVD2-Ig: DVD-Ig as DVD1-Ig but with linkers ADAAP (light chain) and AKTTPP (heavy chain) (antibody)
VH: MQLSGLTSEDSAMYFCVRFPTGNDYYAMDYWGQGTSVTVSSAKTTPPQIQLVQSGPELKKPGETVKISCKASGYTFRNYGMNWVKQAPGKDLKRMAWINTYTGESTYADDFKGRFAFSLETSASTAYLQINNLKNEDTATYFCARGIYYYGSSYAMDYWGQGTSVTVSS
VL: PVEADDAATYYCQQNNEDPFTFGSGTKLEIKRADAAPNIQMTQTTSSLSASLGDRVTISCRASQDISNCLNWYQQKPDGTVKLLIYYTSRLHSGVPSRFSGSGSGTDYSLTISNLEQEDIATYFCQQGKTLPYAFGGGTKLEINR
B2: DVD1-Ig: DVD-Ig binding hIL-1α and hIL-1β; VH/VL of 13F5.G5 fused directly to N-terminus of 3D12.E3 VH/VL, no linker (antibody)
VH: MQLSGLTSEDSAMYFCVRFPTGNDYYAMDYWGQGTSVTVSSQIQLVQSGPELKKPGETVKISCKASGYTFRNYGMNWVKQAPGKDLKRMAWINTYTGESTYADDFKGRFAFSLETSASTAYLQINNLKNEDTATYFCARGIYYYGSSYAMDYWGQGTSVTVSS
VL: PVEADDAATYYCQQNNEDPFTFGSGTKLEIKRNIQMTQTTSSLSASLGDRVTISCRASQDISNCLNWYQQKPDGTVKLLIYYTSRLHSGVPSRFSGSGSGTDYSLTISNLEQEDIATYFCQQGKTLPYAFGGGTKLEINRR

Assays:
[1] = Size exclusion chromatography (SEC): physical homogeneity and in vitro stability; assay type: physicochemical; details: for Ab (intact antibody) / Agg (aggregates) / Frgm (fragments): 0.2-0.4 mg/ml in PBS; for Ab (intact antibody) / Agg (aggregates) / Frgm (fragments) / aggregation and fragmentation in stability analysis: SEC; for aggregation and fragmentation in stability analysis: PBS, freeze-thaw, 4, 25, 40° C. for 4 and 8 weeks; for SEC profile of purified protein (physical homogeneity): purified protein in PBS
Procedure: For measuring molecular weight (MW) of light and heavy chains of DVD-Ig binding protein, 10 μL of DVD-Ig molecule (0.8 μg/μL) was reduced by 1.0 M DTT solution (5 μL). A PLRP-S, 8μ, 4000 A, and 1×150 mm protein column (Michrom BioResource, Auburn, Mass.) was used to separate heavy and light chains of DVD-Ig molecule. Agilent HP1100 Capillary HPLC (Agilent Technologies Inc., Pala Alto, Calif.) was used with the mass spectrometer QSTAR (Applied Biosystems, Foster City, Calif.). The valco valve was set at 10 minutes to switch the flow from waste to MS for desalting sample. Buffer A was 0.02% TFA, 0.08% FA, 0.1% ACN and 99.8% HPLC-H2O. Buffer B contained 0.02% TFA, 0.08% FA, 0.1% HPLC-H2O, and 99.8% ACN. The HPLC flow rate was 50 μL/minute and the sample injection volume was […]. The temperature of the column oven was set at 60° C., and separation gradient was: 5% B for 5 minutes; 5% B to 65% B for 35 minutes; 65% B to 95% B for another 5 minutes, and 95% B to 5% B for 5 minutes. TOFMS scan was from 800 to 2500 amu, and cycles were 3600. To determine the MW of full length DVD-Ig binding protein, a Protein MicroTrap cartridge (Michrom BioResource, Auburn, Mass.) was used for desalting the sample. The HPLC gradient was: 5% B for 5 minutes; 5% B to 95% B in 1 minute; and from 95% B to 5% B in another 4 minutes. The QSTAR TOFMS scan was from 2000 to 3500 amu, and cycles were 899. All MS raw data were analyzed using the Analyst QS software (Applied Biosystems). For SEC analysis of the DVD-Ig binding protein, purified DVD-Ig binding protein and chimeric Abs, in PBS, were applied on a Superose 6 10/300 G2, 300×10 mm column (Amersham Bioscience, Piscataway, N.J.). An HPLC instrument, Model 10A (Shimadzu, Columbia, Md.) was used for SEC. All proteins were determined using UV detection at 280 nm and 214 nm. The elution was isocratic at a flow rate of 0.5 mL/minute. For stability study, samples in the concentration range of 0.2-0.4 mg/ml in PBS underwent 3 freeze-thaw cycles between −80° C. and 25° C., or were incubated at 4° C., 25° C., or 40° C., for 4 weeks and 8 weeks, followed by SEC analysis.
In order to determine the precise molecular weight of the DVD-Ig binding proteins, mass spectrometry was employed. […] To further study the physical properties of DVD-Ig binding protein in solution, size exclusion chromatography (SEC) was used to analyze each protein.
The physical stability of DVD-Ig was tested as follows. Purified antibodies in the concentration range of 0.2-0.4 mg/ml in PBS underwent 3 freeze-thaw cycles between −80° C. and 25° C., or were incubated at 4° C., 25° C., or 40° C., for 4 weeks and 8 weeks, followed by analysis using size exclusion chromatography (SEC) analysis (see Table 12).

hIL-1β = hIL-1β (Homo sapiens, UniProt P01584); test: MRC-5 bioassay: neutralization of hIL-1β-induced IL-8 production; assay type: cell-based
Chain of hIL-1β (P01584 117-269): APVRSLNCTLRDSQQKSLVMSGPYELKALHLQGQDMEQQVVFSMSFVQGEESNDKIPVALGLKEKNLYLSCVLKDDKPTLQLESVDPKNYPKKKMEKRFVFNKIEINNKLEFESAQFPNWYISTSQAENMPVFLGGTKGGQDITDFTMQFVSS
Procedure: The MRC-5 cell line is a human lung fibroblast cell line that produces IL-8 in response to human IL-1α and IL-1β in a dose-dependent manner (see, Dinarello, Muegge, and Durum (2000) Curr. Protocols Immunol. 6:1). MRC-5 cells were cultured in 10% FBS complete MEM and grown at 37° C. in a 5% CO2 incubator. […] The supernatants were harvested, diluted, and IL-8 concentrations measured by ELISA using a standard IL-8 ELISA kit (R&D Systems). Antibody potency was determined by its ability to inhibit IL-8 production by MRC-5 cells.
The biological activity of DVD-Ig was measured using MRC-5 bioassay. The MRC-5 cell line is a human lung fibroblast cell line that produces IL-8 in response to human IL-1α and IL-1β in a dose-dependent manner. MRC-5 cells were obtained from ATCC and cultured in 10% FBS complete MEM at 37° C. in a 5% CO2 incubator. To determine neutralizing activity of the DVD-Ig against human IL-1α or IL-1β, 50 μl of antibody (1×10^−7 to 1×10^−12 M) in MEM/10% FBS was added to a 96 well plate and pre-incubated with 50 μl of hIL-1α or hIL-1β (200 pg/ml) for 1 hour at 37° C., 5% CO2. […] The supernatants were harvested and human IL-8 production measured by standard ELISA (R&D Systems, Minneapolis, Minn.). Neutralizing activity of the DVD-Ig binding protein was determined by its ability to inhibit IL-8 production.

[2] = 3xFreeze-Thaw between −80° C. and 25° C.

Molecule	Ab (intact antibody) [1, 2] [percentage]	Agg (aggregates) [1, 2] [percentage]	Frgm (fragments) [1, 2] [percentage]	Ab (intact antibody) ([1]; 4° C. @ 4 Wks) [percentage]	Agg (aggregates) ([1]; 4° C. @ 4 Wks) [percentage]	Frgm (fragments) ([1]; 4° C. @ 4 Wks) [percentage]	Ab (intact antibody) ([1]; 4° C. @ 8 Wks) [percentage]	Agg (aggregates) ([1]; 4° C. @ 8 Wks) [percentage]	Frgm (fragments) ([1]; 4° C. @ 8 Wks) [percentage]	Ab (intact antibody) ([1]; 25° C. @ 4 Wks) [percentage]	Agg (aggregates) ([1]; 25° C. @ 4 Wks) [percentage]	Frgm (fragments) ([1]; 25° C. @ 4 Wks) [percentage]	Ab (intact antibody) ([1]; 25° C. @ 8 Wks) [percentage]	Agg (aggregates) ([1]; 25° C. @ 8 Wks) [percentage]	Frgm (fragments) ([1]; 25° C. @ 8 Wks) [percentage]	Ab (intact antibody) ([1]; 40° C. @ 4 Wks) [percentage]	Agg (aggregates) ([1]; 40° C. @ 4 Wks) [percentage]	Frgm (fragments) ([1]; 40° C. @ 4 Wks) [percentage]	Ab (intact antibody) ([1]; 40° C. @ 8 Wks) [percentage]	Agg (aggregates) ([1]; 40° C. @ 8 Wks) [percentage]	other results
B1	100.0	0.0	0.0	100.0	0.0	0.0	100.0	0.0	0.0	100.0	0.0	0.0	100.0	0.0	0.0	100.0	0.0	0.0	100.0	0.0	Frgm (fragments) ([1]; 40° C. @ 8 Wks): 0.0 percentage; aggregation and fragmentation in stability analysis [1]: Neither aggregation nor fragmentation was detected; maintained as intact monomeric molecule ([1]; all conditions tested (freeze-thaw; 4, 25, 40° C. for 4 and 8 weeks)): 100%; SEC profile of purified protein (physical homogeneity) [1]: a single peak; neutralizing activity to hIL-1β, fold higher than that of DVD1-Ig (hIL-1β): 3 fold
B2	53.50	46.50	0.00	56.63	42.43	0.94	56.91	38.18	4.91	54.34	45.66	0.00	67.39	24.42	8.19	59.42	36.70	3.88	67.16	20.55	Frgm (fragments) ([1]; 40° C. @ 8 Wks): 12.29 percentage; aggregation and fragmentation in stability analysis [1]: showed aggregations in PBS under different conditions; SEC profile of purified protein (physical homogeneity) [1]: a major peak as well as a shoulder peak on the right; IC50 (hIL-1β; antigen hIL-1β, read-out: Potency IC50): 3.1 nM
